Positions of bridges follow the written chain, without caps; N, C: chain ends. Non-standard residues stand in square brackets, D forms with d. No end group written: not given here. *: point of attachment. Acetyl(2-(4-imidazolyl)) = O=C(Cc1c[nH]cn1)*; Aib = CC(C)(N)C(=O)O
Tests used:
Assay in all cases: cell-based or functional assay
human GIP receptor = molecular target: T1, human GIP receptor (human, UniProt P48546 22-466)
T1 sequence (looked up): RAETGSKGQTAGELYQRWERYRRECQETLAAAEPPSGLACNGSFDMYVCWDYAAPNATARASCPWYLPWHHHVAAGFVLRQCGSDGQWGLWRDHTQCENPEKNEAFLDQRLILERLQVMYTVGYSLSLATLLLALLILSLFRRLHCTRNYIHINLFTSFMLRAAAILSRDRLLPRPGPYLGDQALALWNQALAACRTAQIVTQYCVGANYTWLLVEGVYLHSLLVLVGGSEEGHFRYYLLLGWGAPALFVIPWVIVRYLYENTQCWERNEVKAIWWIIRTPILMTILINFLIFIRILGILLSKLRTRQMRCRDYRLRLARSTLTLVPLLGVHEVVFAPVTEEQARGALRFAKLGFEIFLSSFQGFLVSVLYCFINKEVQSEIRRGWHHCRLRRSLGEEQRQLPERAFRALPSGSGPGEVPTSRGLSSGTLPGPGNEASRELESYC

human GLP-1 receptor = human GLP-1 receptor (human, UniProt P43220 24-463)
human GCG receptor = human GCG receptor (human, UniProt P47871 26-477)
Chain of human GCG receptor (P47871 26-477): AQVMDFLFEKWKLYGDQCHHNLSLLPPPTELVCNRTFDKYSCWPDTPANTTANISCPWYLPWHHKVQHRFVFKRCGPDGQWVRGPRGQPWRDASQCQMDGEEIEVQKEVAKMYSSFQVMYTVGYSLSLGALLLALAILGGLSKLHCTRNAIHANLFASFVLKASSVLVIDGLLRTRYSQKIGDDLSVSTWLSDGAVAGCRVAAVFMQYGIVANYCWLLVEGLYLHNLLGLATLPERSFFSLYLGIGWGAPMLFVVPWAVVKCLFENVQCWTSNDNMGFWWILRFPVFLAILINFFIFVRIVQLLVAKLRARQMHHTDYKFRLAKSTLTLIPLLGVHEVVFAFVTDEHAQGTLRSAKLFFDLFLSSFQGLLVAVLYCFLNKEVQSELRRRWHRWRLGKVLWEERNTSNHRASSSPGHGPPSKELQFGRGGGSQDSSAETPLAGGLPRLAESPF

Binder | In vitro Activity Compared to Native Peptide (%) vs. GIP (human GIP receptor) | In vitro Activity Compared to Native Peptide (%) vs. GLP-1 (human GLP-1 receptor) | In vitro Activity Compared to Native Peptide (%) vs. Glucagon (human GCG receptor)
Y[Aib]QGTFTSDYSKYLDECAAKEFVQWLLDHHPSSGQPPPS (bridge 16-20) [triple agonist of SEQ ID NO: 64] | 92.9% | 64.6% | 60.1%
H[Aib]QGTFTSDYSKYLDEKRQKEFVNWLLAQC (bridge 16-20) [triple agonist of SEQ ID NO: 56] | 0.8% | 57.9% | 4.9%
{Acetyl(2-(4-imidazolyl))}-[Aib]QGTFTSDYSIAMDEIACKDFVNWLLNTK (bridge 15-19) [triple agonist of SEQ ID NO: 61] | 2.8% | 59.8% | < 0.1%
H[Aib]QGTFTSDVSKYLDGQAAKEFVAWLLKGC [triple agonist of SEQ ID NO: 7] | < 0.1% | 13.7% | < 0.1%
[Acetyl(2-(4-imidazolyl))][Aib]QGTFTSDYSKYLDECRAKEFVQWLLDHHPSSGQPPPS (bridge 16-20) [triple agonist of SEQ ID NO: 73] | 3% | 22.6% | 5.4%
Y[Aib]QGTFTSDYSKCLDEKAAKEFVQWLLDHHPSSGQPPPS (bridge 16-20) [triple agonist of SEQ ID NO: 68] | 107% | 27.9% | 8.8%
H[Aib]QGTFTSDVSSYLDGQAAKEFVAWLLKGC [triple agonist of SEQ ID NO: 6] | < 0.1% | 17% | < 0.1%
Y[Aib]QGTFTSDYSKYLDERACKDFVQWLLDHHPSSGQPPPS (bridge 16-20) [triple agonist of SEQ ID NO: 71] | 94.7% | 90.1% | 12.7%
H[Aib]QGTFTSDYSKYLDEKRQKEFVQWLLDTC (bridge 16-20) [triple agonist of SEQ ID NO: 52] | 0.3% | 44.1% | 7.5%
[Acetyl(2-(4-imidazolyl))][Aib]QGTFTSDYSKCLDEKRAKEFVQWLLDHHPSSGQPPPS (bridge 16-20) [triple agonist of SEQ ID NO: 74] | 1% | 12.9% | 0.9%
Y[Aib]QGTFTSDYSKCLDERAAKEFVQWLLDHHPSSGQPPPS (bridge 16-20) [triple agonist of SEQ ID NO: 69] | 62.8% | 24.3% | 9.6%
H[Aib]QGTFTSDYSIAMDEIHQKDFVNWLLNTC (bridge 16-20) [triple agonist of SEQ ID NO: 57] | 0.3% | 11.7% | < 0.1%
{Acetyl(2-(4-imidazolyl))}-[Aib]QGTFTSDKSKYLDERAAQDFVQWLLDGGPSSGAPPPS (ends and bridges not checked) [triple agonist of SEQ ID NO: 62] | < 0.1% | 5.2% | < 0.1%
Y[Aib]QGTFTSDYSKCLDEKRAKDFVQWLLDHHPSSGQPPPS (bridge 16-20) [triple agonist of SEQ ID NO: 70] | 64.4% | 15.1% | 71.3%
{Acetyl(2-(4-imidazolyl))}-[Aib]QGTFTSDYSIAMDEKHCKDFVNWLLNTK (bridge 15-19) [triple agonist of SEQ ID NO: 60] | 8.2% | 106% | < 0.1%
H[Aib]QGTFTSDYSKYLDEKRQKEFVQWLLNTKC (bridge 16-20) [triple agonist of SEQ ID NO: 58] | 0.2% | 39.1% | 2.6%
H[Aib]QGTFTSDVSKYLDGQAAQEFVAWLLKGC [triple agonist of SEQ ID NO: 8] | < 0.1% | 14.2% | 0.1%
H[Aib]QGTFTSDYSIAMDEIHQKDFVNWLLAQC (bridge 16-20) [triple agonist of SEQ ID NO: 55] | 2.4% | 27.1% | 0.7%
{Acetyl(2-(4-imidazolyl))}-[Aib]QGTFTSDCSKYLDERAAQDFVQWLLDGGPSSGAPPPS (ends and bridges not checked) [triple agonist of SEQ ID NO: 63] | < 0.1% | 15.3% | < 0.1%
{Acetyl(2-(4-imidazolyl))}-[Aib]QGTFTSDYSICMDEKHQKDFVNWLLNTK (bridge 15-19) [triple agonist of SEQ ID NO: 59] | 4% | 40.3% | < 0.1%
H[Aib]EGTFTSDYSIAMDEIHQKDFVDWLLAEC (bridge 16-20) [triple agonist of SEQ ID NO: 54] | 0.1% | 30.6% | 1.4%
H[Aib]EGTFTSDYSIAMDEIHQKDFVNWLLAQC (bridge 16-20) [triple agonist of SEQ ID NO: 53] | 1.3% | 161% | 8.4%
Y[Aib]QGTFTSDYSKYLDECAAKDFVQWLLDHHPSSGQPPPS (bridge 16-20) [triple agonist of SEQ ID NO: 67] | 39.8% | 28.5% | 46.2%
H[Aib]QGTFTSDYSKCLDEKRAKEFVQWLLDHHPSSGQPPPS (bridge 16-20) [triple agonist of SEQ ID NO: 65] | 11.6% | 95.4% | 25.2%
Y[Aib]QGTFTSDYSKYLDECRAKDFVQWLLDHHPSSGQPPPS (bridge 16-20) [triple agonist of SEQ ID NO: 66] | 17.2% | 15.8% | 172%
Y[Aib]QGTFTSDCSKYLDERAAKDFVQWLLDHHPSSGQPPPS (bridge 16-20) [triple agonist of SEQ ID NO: 72] | 1.6% | 11.5% | 1%
